The target of assay [1] is T1, human CD47 expressed on the cell surface (human, UniProt Q08722 19-323). The experiment in a line: cell-based or functional assay.
The target in assay [2] is T2, CD20 on cells (Raji cells, human B cells) (human, UniProt P11836 1-297).
T2 construct: whole, on cells; The cells that carry it (Raji, B cells) also carry CD47
T2 sequence (looked up): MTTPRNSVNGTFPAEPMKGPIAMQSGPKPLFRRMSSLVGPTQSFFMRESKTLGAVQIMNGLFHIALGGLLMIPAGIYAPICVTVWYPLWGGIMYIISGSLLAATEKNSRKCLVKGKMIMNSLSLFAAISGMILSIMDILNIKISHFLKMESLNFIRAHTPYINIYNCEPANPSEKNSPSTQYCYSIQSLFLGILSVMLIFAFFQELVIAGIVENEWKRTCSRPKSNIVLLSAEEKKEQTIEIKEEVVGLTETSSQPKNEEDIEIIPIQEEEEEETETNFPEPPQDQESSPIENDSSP
The experiment in a line: binding to Raji cells (CD20+/CD47+), FIG. 17.

Assay [3] concerns the target T1, human CD47 expressed on the cell surface. The experiment in a line: blocking of human SIRPα binding to OCI-Ly3 cells (FIG. 21).

B1: TPP-1360 (bispecific antibody, human IgG1, kappa)
light 1: NIQMTQSPSSLSASVGDRVTITCRASQDIHRYLSWFQQKPGKVPKHLIYRESRFVDGVPSRFSGSGSGTEFTLTISSLQPEDFATYYCLQYDEFPYTFGGGTKVEIKRTVAAPSVFIFPPSDEELKSGTASVVCWLNNFYPREAKVQWKVDNALQSGNSEESVTEQDSKDSTYSLSSTLELSKADYEKHKVYACEVTHQGLSSPVTKSFNRGEC
heavy 1: QMQLVQSGAEVKKPGSSVKVSCKASGFNIKDYYLHWVRQAPGKGLEWMGWIDPDQGDTYYAQKFQGRVTITRDRSTSTAYMELRSLRAEDTAVYYCNAAYGESSYPMDYWGQGTLVTVSSASTKGPSVFPLAPSSKSTSGGTAALGCLVKDYFPEPVTVSWNSGALTSGVHTFPAVLKSSGLYSLSSVVTVPSSSLGTQTYICNVNHKPSNTKVDKKVEPKSCDKTHTCPPCPAPELLGGPSVFLFPPKPKDTLMISRTPEVTCVVVDVSHEDPEVKFNWYVDGVEVHNAKTKPREEQYNSTYRVVSVLTVLHQDWLNGKEYKCKVSNKALPAPIEKTISKAKGQPREPQVYVLPPSREEMTKNQVSLLCLVKGFYPSDIAVEWESNGQPENNYLTWPPVLDSDGSFFLYSKLTVDKSRWQQGNVFSCSVMHEALHNHYTQKSLSLSPGK
light 2: QIVLSQSPAILSASPGEKVTMTCRASSSVSYIHWFQQKPGSSPKPWIYATSNLASGVPVRFSGSGSGTSYSLTISRVEAEDAATYYCQQWTSNPPTFGGGTKLEIKRTVAAPSVAIFPPSDERLKSGTASVVCVLNNFYPREAKVQWKVDNALQSGNSQESVTEQDSKDSTYSLSSRLTLSKADYEKHKVYACEVTHQGLSSPVTKSFNRGEC
heavy 2: QVQLQQPGAELVKPGASVKMSCKASGYTFTSYNMHWVKQTPGRGLEWIGAIYPGNGDTSYNQKFKGKATLTADKSSSTAYMQLSSLTSEDSAVYYCARSTYYGGDWYFNVWGAGTTVTVSAASTKGPSVFPLAPSSKSTSGGTAWLGCEVTDYFPEPVTVSWNSGALTSGVHTFPAVLESSGLYSLSSVVTVPSSSLGTQTYICNVNHKPSNTKVDKKVEPKSCDKTHTCPPCPAPELLGGPSVFLFPPKPKDTLMISRTPEVTCVVVDVSHEDPEVKFNWYVDGVEVHNAKTKPREEQYNSTYRVVSVLTVLHQDWLNGKEYKCKVSNKALPAPIEKTISKAKGQPREPQVYVYPPSREEMTKNQVSLTCLVKGFYPSDIAVEWESNGQPENNYKTTPPVLDSDGSFALVSKLTVDKSRWQQGNVFSCSVMHEALHNHYTQKSLSLSPGK
For the molecule B1, in assay [1], the “EC50, activation of macrophage phagocytosis of OCI-Ly3 cells” value turned out to be 1.4 nM and the “EC50, activation of macrophage phagocytosis of Raji cells” value turned out to be 1.8 nM.

B2: rituximab (antibody, human IgG1, kappa, V domains shown)
VH: QVQLQQPGAELVKPGASVKMSCKASGYTFTSYNMHWVKQTPGRGLEWIGAIYPGNGDTSYNQKFKGKATLTADKSSSTAYMQLSSLTSEDSAVYYCARSTYYGGDWYFNVWGAGTTVTVSA
VL: QIVLSQSPAILSASPGEKVTMTCRASSSVSYIHWFQQKPGSSPKPWIYATSNLASGVPVRFSGSGSGTSYSLTISRVEAEDAATYYCQQWTSNPPTFGGGTKLEIKR
notes: Anti-CD20 antibody, bivalent to CD20; also called rituxan
The EC50 is the concentration at which the effect is half-maximal. The low end stands for higher potency in that assay, the high end for lower potency in that assay. In the case of B2, the EC50 in assay [2] was ~1.1 nM.

B3: TPP-23 (408_437 Fab with IgG1) (antibody, V domains shown)
VH: QMQLVQSGAEVKKPGSSVKVSCKASGFNIKDYYLHWVRQAPGKGLEWMGWIDPDQGDTEYAQKFQGRVTITRDRSTSTAYMELRSLRAEDTAVYYCNAAYGSSSYPMDYWGQGTLVTVSS
VL: NIQMTQSPSSLSASVGDRVTITCRASQDIHRYLSWFQQKPGKVPKHLIYRANRLVSGVPSRFSGSGSGTEFTLTISSLQPEDFATYYCLQYDEFPYTFGGGTKVEIK
notes: also called parental CD47 mAb
Take B3: a half-maximal response in assay [3] (EC50) required 0.11 nM.
